Measured values taken from article PMC9412290.
Substitutions are numbered along the chain they refer to. Numbers in names are those of the source.

Biological target: CD46, stably expressed on CHO cells (CHO-CD46) (human) (UniProt P15529)
UniProt P15529, sequence (P15529 35-392): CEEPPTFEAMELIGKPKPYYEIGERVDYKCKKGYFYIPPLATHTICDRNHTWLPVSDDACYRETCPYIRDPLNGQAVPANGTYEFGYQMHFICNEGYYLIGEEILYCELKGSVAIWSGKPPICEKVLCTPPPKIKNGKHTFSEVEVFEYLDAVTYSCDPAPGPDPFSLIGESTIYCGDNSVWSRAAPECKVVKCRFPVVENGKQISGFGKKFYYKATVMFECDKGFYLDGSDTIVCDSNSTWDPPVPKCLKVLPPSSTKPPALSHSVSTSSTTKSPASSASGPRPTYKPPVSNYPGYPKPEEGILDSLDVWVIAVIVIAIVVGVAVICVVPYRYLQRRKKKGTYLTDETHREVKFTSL

B1: human adenovirus type 3 (Ad3) fiber, on particles of the Ad3 vector (natural protein)
chain: MAKRARLSTSFNPVYPYEDESSSQHPFINPGFISPDGFTQSPNGVLSLKCVNPLTTASGSLQLKVGSGLTVDTTDGSLEENIKVNTPLTKSNHSINLPIGNGLQIEQNKLCSKLGNGLTFDSSNSIALKNNTLWTGPKPEANCIIEYGKQNPDSKLTLILVKNGGIVNGYVTLMGASDYVNTLFKNKNVSINVELYFDATGHILPDSSSLKTDLELKYKQTADFSARGFMPSTTAYPFVLPNAGTHNENYIFGQCYYKASDGALFPLEVTVMLNKRLPDSRTSYVMTFLWSLNAGLAPETTQATLITSPFTFSYIREDD
percent GFP-positive cells by flow cytometry after infection of CHO-CD46 cells with 2000 vp/c of the Ad3 vector (transduction; CHO-K1 without receptor is not transduced): 13%

B2: human adenovirus type 3 (Ad3) fiber with the JO4 mutation (V239D), on particles of the Ad3-JO4 vector (natural protein)
chain: B1 chain with V239D
percent GFP-positive cells by flow cytometry after infection of CHO-CD46 cells with 2000 vp/c of the Ad3-JO4 vector (transduction; CHO-K1 without receptor is not transduced): < 5%
